# Data published in patent US20100181197A1, “ISOELECTRIC POINT MARKERS” (GE HEALTHCARE BIO-SCIENCES AB, priority 2007, published 2010).
# Ends that are not written are not given here.
# Experiment: Isoelectric focusing of CY5-labelled pI markers in IPG strips, fluorescence scan
# Assay type: physicochemical
# Details: linear IPG pH 3.70-4.05, 22 cm strip, 8 M urea, 20° C., 129 kVh, 0.3 μg/strip
# Description: The amino acid sequences of the isoelectric point markers were selected essentially as described in Shimura, K. et al, Electrophoresis, (2000), 21, 603-610. The markers contain a minimum of two […] groups with pK values in the vicinity of the pI value of the corresponding marker. The pH scale is a pH scale defined for isoelectric focussing in 8M urea and 20° C. as described in Bjellqvist, B. et al, Electrophoresis, (1993), 14, 1357-1365, Bjellqvist, B. et al, Electrophoresis, (1994), 15, 529-539.
# 3.2 Sample application was performed with polyacrylamide gel pieces, cast as 1 mm thick gel of the size 260×110 mm on a GelBond PAGE film. In addition to acrylamide (38.8 gram/litre) and bisacrylamide (1.2 gram/litre) the gel polymerising solution contained 15.0 mM Immobiline pK 3.6 and 5.9 mM Immobiline pK 9.3. The polymerisation initiators used were ammonium persulfate and tetramethyl ethylenediamine. The gel was extensively washed in water (10 wash cycles of 20 minutes using 200 ml water/wash). To the last wash was added 2% glycerol. The gel was then dried and cut to generate a number sample application gel pieces of the size 43×7 mm.
# Four, 22 cm long IPG strips were re-swollen overnight in 250 μl 8 M urea solution containing 1% Pharmalyte pH 2.5-5 and a trace of bromophenol blue. In parallel, four sample application gel pieces were re-swollen in 315 μl sample solution containing 300 μg yeast protein in 8 M urea to which 0.3 μg of the pI marker had been added.
# The four re-swollen IPG strips were positioned in a ceramic manifold in the IPGPHOR™ 3 with the GelBond film downwards. At the basic/cathodic ends of the IPG strips, paper electrode wicks (10×7×1 mm) to which 150 ul water had been added, were positioned on top of the IPG strips with an overlap of 2 mm to establish electric contact. At the anodic end, the wetted electrode wick was positioned 39 mm away from the acidic end of the IPG strip. The re-swollen acidic sample application gel was positioned with the gel side down as a bridge between the paper electrode wick and the IPG strip to give contact both with the paper wick and with the IPG strip through a 2 mm overlap region. The anodic and cathodic electrodes were finally positioned on the anodic and cathodic paper electrode wicks respectively and a light pressure was applied on the back of the sample application gels at the over lap regions with the paper electrode wicks and the IPG strips respectively.
# 3.3 Focusing was then performed at 20° C. with maximum current set to 50 uA/strip with the following voltage settings:
# The focusing experiment was performed with current limitations from 1000V onwards; 2500 V was reached after 5 hours and the voltage only changed slowly to reach a final voltage of 2715 V after 52 hours 23 minutes and a total volthourproduct of 129 kilovolthours.
# Upon completion, the gel strips were transferred to a TYPHOON™ 9400 imager and scanned in the fluorescence mode at 633 nm (FIG. 3). From the focusing positions the pI-value for the marker was determined to be 3.86.
# Focusing was performed in IPG strips pH 3.4-4.9 containing a non-linear pH-gradient adjusted to give an even distribution of peptides in the focused strip. The experiment was run essentially as described in Example 3. For sample application, the same type of polyacrylamide gel applicator was used, this time re-swollen in an 8M urea solution containing 30 μg of the digested yeast proteins and 0.3 μg of each of the four pI-markers. Focusing was continued for 47 hours 45 minutes and the total volthourproduct was 207 kVh.
row,Substance,pI-value for the marker from focusing positions
1,H2N-Asp-Gly-Asp-Gly-Lys(CY™5)-COOH (H-DGDGK(Cy5)-OH) [Compound xvii],3.86

# Same assay, conditions: marker reacted at C-terminal lysine with CY5; experimental pI
row,Substance,pI (exp) pI/marker
1,H2N-Gly-Glu-Gly-Gly-Glu-Gly-Glu-Lys(CY™5)-COOH (H-GEGGEGEK(Cy5)-OH) [xix],4.22
2,H2N-Glu-Gly-Glu-Gly-Lys(CY™5)-COOH (H-EGEGK(Cy5)-OH) [xxiii],4.28
3,H2N-Gly-Gly-Gly-Gly-Glu-Glu-Lys(CY™5)-COOH (H-GGGGEEK(Cy5)-OH) [Compound xxi],4.56
4,H2N-Glu-Gly-Asp-Gly-Lys(CY™5)-COOH (H-EGDGK(Cy5)-OH) [Compound xxii],4.18
5,H2N-Gly-Glu-Glu-Gly-Gly-Lys(CY™5)-COOH [Compound xx],4.44
6,H2N-Asp-Gly-Asp-Gly-Lys(CY™5)-COOH (H-DGDGK(Cy5)-OH) [Compound xvii],3.86
7,H2N-Gly-Gly-Glu-Gly-Gly-Glu-Gly-Lys(CY™5)-COOH (H-GGEGGEGK(Cy5)-OH) [xxiv],4.42
8,H2N-Gly-Asp-Gly-Gly-Asp-Gly-Gly-Lys(CY™5)-COOH [xviii],4.02

# Experiment: Experimentally determined pI-values of tryptic peptides focused in IPG strips
# Assay type: physicochemical
# Details: tryptic yeast peptides focused in IPG strips 3.7-4.05
# Text: Both methods are based on the equilibria of amino acid residues participating in reactions with water and can be described with one pK-value for each type of residue, which is independent of the nature of neighbouring amino acids. The consequence of this assumption is that for large groups of tryptic peptides, the same pI-value will be predicted. […] The approaches described above will result in the same pI-value for all these peptides. The value predicted at the Expasy server is 4.53, which can be compared with the value resulting from the experimental distribution, i.e. 4.49±0.075.
# It would be expected that the presence of two negatively charged amino acid residues at limited distances from each other along the amino acid chain should result in an increase of the pK-values involved and a concomitant increase of the pI-value, while two positively charged residues at limited distances from each other along the peptide chain could be expected to give reversed effect, i.e. a decrease in pK-values and a concomitant decrease of the pI-value. In reality, no such effects can be detected. […] In the peptides, C-terminal amino acids are either lysine or arginine. […] This is explained by the presence of two oppositely charged amino acid residues in the chain, thereby favouring configurations with a short distance between the two residues. As a consequence, pK-values are affected also when these residues are separated by up to 5 amino acid residues. On the other hand, the presence of two equally charged residues favours configurations with the longest possible distance between the charged groups and for neighbouring charged residues, the average distance becomes too long to generate a detectable effect on pK and pI values.
# The C-terminal, which in tryptic digests is either lysine or arginine contains both a positively charged group and a negatively charged group, gives notable effects on resulting pI-values only when the neighbouring group is charged. At larger distances, for peptides having two internal glutamic acid residues (no glutamic acid in position 1-6), the C-terminal amino acid being either lysine or arginine, the effect on pI is negligible (Table 2).
# 3.1 Yeast proteins (Saccharomyces cerevisiae, type II (1 gram) were dissolved in a 10 ml solution containing 50 mM Tris-HCl pH 8.0, 6 M urea and 10 mM DDT. The solution was allowed to stand for 1 hour at 37° C. and then allowed to react with iodoacetamide (addition of 250 μl 0.8 M iodoacetamide solution) for 30 minutes at room temperature to […] the cysteine groups. The sample was then sonicated 5 times for 30 seconds followed by dilution of the sample in 50 mM Tris-HCl, 1 mM CaCl2 (1 ml sample to 9 ml Tris-Cl buffer solution). 2.5 ml of diluted sample was added to a container with 250 μg trypsin (4 containers for 10 ml diluted sample) and digestion was allowed to proceed for 2 hours at 37° C. The sample was then concentrated by evaporation to 2 ml. 1 ml of digested concentrated sample was then added to a NAP-10 column pre-equilibrated with 15 ml 8 M urea solution and the sample was eluted with 1.5 ml urea. After a protein determination the sample was aliquoted and frozen until used.
# A total of 6612 tryptic yeast peptides have been identified after focusing in IPG strips 3.7-4.05. Sixteen of these peptides have a structure (Table 5) which should give them a pI in close agreement with the pI of the marker. The average value found for these peptides 3.80±0.03 is in reasonable agreement with the value found for the pI marker.
row,Substance,pI-value
1,DTDYVPIVVVGNK [tryptic yeast peptide identified after focusing in IPG strips 3.7-4.05],3.840
2,DIDILVNNAGK [tryptic yeast peptide identified after focusing in IPG strips 3.7-4.05],3.828
3,DADLLNSVVVQR [tryptic yeast peptide identified after focusing in IPG strips 3.7-4.05],3.775
4,DSDYIPVVVVGNK [tryptic yeast peptide identified after focusing in IPG strips 3.7-4.05],3.825
5,DGDYNLVGSK [tryptic yeast peptide identified after focusing in IPG strips 3.7-4.05],3.746
6,DQDSAVVSSNIK [tryptic yeast peptide identified after focusing in IPG strips 3.7-4.05],3.823
7,DGDQVVFMVSQK [tryptic yeast peptide identified after focusing in IPG strips 3.7-4.05],3.760
8,DTDMVLIPAGVPR [tryptic yeast peptide identified after focusing in IPG strips 3.7-4.05],3.808
9,DLDLPTQQILVAR [tryptic yeast peptide identified after focusing in IPG strips 3.7-4.05],3.830
10,DIDNGYTLSLMYK [tryptic yeast peptide identified after focusing in IPG strips 3.7-4.05],3.800
11,DCDSLSSLVTR [tryptic yeast peptide identified after focusing in IPG strips 3.7-4.05],3.765
12,DLDAAQGTLK [tryptic yeast peptide identified after focusing in IPG strips 3.7-4.05],3.815
13,DNDVQLAATK [tryptic yeast peptide identified after focusing in IPG strips 3.7-4.05],3.800
14,DVDLVNAAR [tryptic yeast peptide identified after focusing in IPG strips 3.7-4.05],3.800
15,DLDAVNGSNGSK [tryptic yeast peptide identified after focusing in IPG strips 3.7-4.05],3.790
16,DSDVTWLYGPIVR [tryptic yeast peptide identified after focusing in IPG strips 3.7-4.05],3.800
